Molecular target: Human fibrillin-2 recombinant C-terminal half (rFBN2-C) (human) (UniProt P35556)
Experiment: SPR; FBN2-Ct amine-coupled to a CM5 chip (1700 RU), ADAMTS6 constructs as analytes; Biacore 3000, 25 °C, 10 mM Hepes pH 7.4, 0.15 M NaCl, 2 mM CaCl2, 0.005% or 0.05% P20, 30 μl/min; steady state affinity method

Recombinant human ADAMTS6-S4TSR (residues 717-1117), sequence (Q9UKP5 717-1117): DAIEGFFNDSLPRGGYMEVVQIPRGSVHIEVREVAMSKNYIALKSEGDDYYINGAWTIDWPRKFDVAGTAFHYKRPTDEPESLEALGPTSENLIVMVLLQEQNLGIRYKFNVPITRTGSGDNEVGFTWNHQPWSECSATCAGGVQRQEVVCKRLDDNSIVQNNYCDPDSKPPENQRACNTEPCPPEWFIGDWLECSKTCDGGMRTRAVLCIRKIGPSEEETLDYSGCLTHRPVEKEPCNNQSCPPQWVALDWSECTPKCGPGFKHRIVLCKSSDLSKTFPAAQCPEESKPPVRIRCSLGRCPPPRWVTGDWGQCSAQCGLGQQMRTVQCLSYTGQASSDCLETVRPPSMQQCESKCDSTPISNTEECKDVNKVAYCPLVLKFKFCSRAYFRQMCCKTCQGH
Recombinant human ADAMTS6-Ct (residues 558-1117), sequence (Q9UKP5 558-1117): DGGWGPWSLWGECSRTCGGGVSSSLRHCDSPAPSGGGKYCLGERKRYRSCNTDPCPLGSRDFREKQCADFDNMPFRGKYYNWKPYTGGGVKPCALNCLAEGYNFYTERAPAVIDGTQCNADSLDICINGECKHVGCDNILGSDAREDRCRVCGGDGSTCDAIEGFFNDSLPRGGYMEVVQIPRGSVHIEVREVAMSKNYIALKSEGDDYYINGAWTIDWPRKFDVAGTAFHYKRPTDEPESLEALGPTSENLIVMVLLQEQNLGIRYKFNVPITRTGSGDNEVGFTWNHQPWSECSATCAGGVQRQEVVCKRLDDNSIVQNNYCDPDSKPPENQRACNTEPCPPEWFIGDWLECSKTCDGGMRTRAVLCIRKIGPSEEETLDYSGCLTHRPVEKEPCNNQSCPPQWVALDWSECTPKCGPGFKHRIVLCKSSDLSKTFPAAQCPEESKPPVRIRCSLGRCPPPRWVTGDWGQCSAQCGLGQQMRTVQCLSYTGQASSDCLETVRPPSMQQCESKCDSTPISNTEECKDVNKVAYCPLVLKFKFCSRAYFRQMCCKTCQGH
Recombinant human ADAMTS6-4TSR (residues 840-1117), sequence (Q9UKP5 840-1117): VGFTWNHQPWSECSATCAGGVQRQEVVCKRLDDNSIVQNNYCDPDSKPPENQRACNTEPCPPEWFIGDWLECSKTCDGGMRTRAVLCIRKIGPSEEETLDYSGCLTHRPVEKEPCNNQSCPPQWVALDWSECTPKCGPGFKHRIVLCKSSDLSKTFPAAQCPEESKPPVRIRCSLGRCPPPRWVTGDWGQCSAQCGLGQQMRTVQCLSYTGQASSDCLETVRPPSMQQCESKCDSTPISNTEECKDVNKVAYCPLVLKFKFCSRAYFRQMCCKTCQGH

Kd [nM] | Substance
122 | Recombinant human ADAMTS6-4TSR (residues 840-1117) (from UniProt Q9UKP5 840-1117) (domain or fragment)
436 | Recombinant human ADAMTS6-Ct (residues 558-1117) (from UniProt Q9UKP5 558-1117) (domain or fragment)
114 | Recombinant human ADAMTS6-S4TSR (residues 717-1117) (from UniProt Q9UKP5 717-1117) (domain or fragment)

— PMC9064305
